Assay results from publication PMC13581290, “A systematic interactome of Saccharomyces cerevisiae SET1C expands its functional landscape and identifies candidate regulatory connections” (eLife, 2026).

Biological target: T1, reconstituted SET1C (FLAG-Set1 and the seven other untagged subunits) (S. cerevisiae, UniProt P38827 1-1080; P39706 1-426; P36104 1-329; P38123 1-315; P43132 1-505; Q03323 …)
T1 construct: Set1, S. cerevisiae, full length (Set1 FL); Swd1, S. cerevisiae, untagged subunit; Swd2, S. cerevisiae, untagged subunit; Swd3, S. cerevisiae, untagged subunit; Bre2, S. cerevisiae, untagged subunit; Sdc1, S. cerevisiae, untagged subunit; Spp1, S. cerevisiae, untagged subunit; Shg1, S. cerevisiae, untagged subunit; The seven subunits are named in the introduction; also called full-length SET1C; …
Test: pull-down; GST-tagged Snf2 fragments (250 nM) on glutathione-Sepharose 4B with SET1C or C762SET1C (25 nM), BSA 0.2 mg/ml; 20 mM Tris-Cl pH 7.9, 150 mM NaCl, 0.2 mM EDTA, 20% glycerol, 0.1% NP-40; 4°C, 3 hr; immunoblotting
Details: both partners purified

B1: GST-Snf2C-AT-hook (domain or fragment, S. cerevisiae, UniProt P22082 1384-1547, looked up)
chain: ARKQRTKKEDKSEAIDGNGEIKGENIDADNDGPRINNISAEDRADTDLAMNDDDFLSKKRKAGRPRGRPKKVKLEGSENSEPPALESSPVTGDNSPSEDFMDIPKPRTAGKTSVKSARTSTRGRGRGRGRGRGRGRGRGRPPKARNGLDYVRTPAAATSPIDIR
notes: Snf2, S. cerevisiae, AT-hook region 1384-1547; also called Snf2-AT-hook; GST-Snf2-AT-hook; source: E. coli BL21, purified
B1: binds.
